We go through one molecule from patent US20140178332A1 (published 2014).

Assay [1] deals with T1, recombinant purified cyno IL-12 p70 (cynomolgus monkey).
T1 chain 1: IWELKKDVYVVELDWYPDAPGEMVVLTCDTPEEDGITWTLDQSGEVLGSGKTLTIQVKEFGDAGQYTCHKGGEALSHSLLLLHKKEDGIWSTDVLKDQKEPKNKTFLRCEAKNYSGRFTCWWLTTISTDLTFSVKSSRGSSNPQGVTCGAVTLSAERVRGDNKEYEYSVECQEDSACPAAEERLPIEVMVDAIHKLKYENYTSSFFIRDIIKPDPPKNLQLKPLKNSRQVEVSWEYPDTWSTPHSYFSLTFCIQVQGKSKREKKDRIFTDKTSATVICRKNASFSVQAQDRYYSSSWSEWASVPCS
T1 chain 2: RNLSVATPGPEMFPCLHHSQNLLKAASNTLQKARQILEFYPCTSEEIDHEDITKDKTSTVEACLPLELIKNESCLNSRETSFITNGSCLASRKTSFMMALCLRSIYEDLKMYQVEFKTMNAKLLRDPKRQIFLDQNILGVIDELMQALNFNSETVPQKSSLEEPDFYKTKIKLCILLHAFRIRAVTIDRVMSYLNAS
Description: cell-based or functional assay.

For assay [2], the target named is T2, recombinant purified human IL-12 p70 (human, UniProt P29459 23-219).
T2 sequence 1: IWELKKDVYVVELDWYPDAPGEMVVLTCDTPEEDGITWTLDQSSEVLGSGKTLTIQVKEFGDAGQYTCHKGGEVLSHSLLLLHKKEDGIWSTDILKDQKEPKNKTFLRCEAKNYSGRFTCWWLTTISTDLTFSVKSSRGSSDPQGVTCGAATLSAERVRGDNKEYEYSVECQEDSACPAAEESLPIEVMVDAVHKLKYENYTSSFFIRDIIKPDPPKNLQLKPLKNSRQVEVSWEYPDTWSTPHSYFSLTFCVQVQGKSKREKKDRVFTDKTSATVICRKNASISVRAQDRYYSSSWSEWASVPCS
T2 sequence 2: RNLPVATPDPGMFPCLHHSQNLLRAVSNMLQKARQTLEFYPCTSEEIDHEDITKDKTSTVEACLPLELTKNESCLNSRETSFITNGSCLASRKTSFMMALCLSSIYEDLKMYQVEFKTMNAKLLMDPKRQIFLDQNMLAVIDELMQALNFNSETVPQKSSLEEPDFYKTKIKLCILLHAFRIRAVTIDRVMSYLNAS
Description: cell-based or functional assay.

For assay [3], the target named is T3, recombinant purified mouse IL-12 (Peprotech) (mouse, UniProt P43432 23-335; P43431 23-215).
T3 construct: Bought reagent; also called mu IL-12; murine IL-12
T3 sequence (looked up) 1: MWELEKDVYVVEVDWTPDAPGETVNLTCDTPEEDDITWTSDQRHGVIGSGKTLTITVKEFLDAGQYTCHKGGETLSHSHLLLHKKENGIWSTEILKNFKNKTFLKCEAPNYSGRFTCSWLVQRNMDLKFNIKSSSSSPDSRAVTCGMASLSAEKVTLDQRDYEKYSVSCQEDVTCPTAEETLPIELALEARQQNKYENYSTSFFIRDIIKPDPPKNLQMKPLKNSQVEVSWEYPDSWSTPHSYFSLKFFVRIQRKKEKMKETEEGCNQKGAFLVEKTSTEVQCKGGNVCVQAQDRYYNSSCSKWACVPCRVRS
T3 sequence (looked up) 2: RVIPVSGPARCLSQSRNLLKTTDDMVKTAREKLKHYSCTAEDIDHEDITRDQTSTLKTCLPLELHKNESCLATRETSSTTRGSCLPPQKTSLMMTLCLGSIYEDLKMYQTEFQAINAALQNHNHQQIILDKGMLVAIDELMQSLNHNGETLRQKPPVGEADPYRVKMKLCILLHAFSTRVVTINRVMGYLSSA
Description: indirect ELISA, mAb captured on anti-mouse IgG Fc, mouse IL-12 at 0.2 ug/ml. The method, then:
Second, an indirect ELISA was set up by coating ELISA plates with 5 ug/ml of goat anti-mouse IgG, Fc fragment specific antibody (Pierce #31170, Rockland, Ill.). Murine anti-human IL-12 p40 mAbs were prepared at various concentrations ranging from 0.1 to 100 ng/ml in PBS containing 0.1% BSA; 50 ul of each antibody dilution was added to the coated ELISA plate and incubated for 1 hour at room temperature. Wells were washed 3 times with PBS containing 0.05% Tween-20. Recombinant purified mouse IL-12 (Preprotech) was diluted at 0.2 ug/ml in PBS containing 0.1% BSA; 50 ul/well was added and the plates incubated for 1 hour at room temperature. Wells were washed 3 times with PBS containing 0.05% Tween-20. Biotinylated anti-mouse IL-12 antibody (R&D # BAF419) was diluted at 0.2 ug/ml in PBS containing 0.1% BSA; 50 ul/well was added and the plates incubated for 1 hour at room temperature. Wells were washed 3 times with PBS containing 0.05% Tween-20. Streptavidin HRP (Pierce #21126, Rockland, Ill.) was diluted 1:20000 in PBS containing 0.1% BSA; 50 μL/well was added and the plates incubated for 1 hour at room temperature. Plates were washed 3 times with PBS containing 0.05% Tween-20. Fifty microliters of TMB solution was added to each well and incubated for 10 minutes at room temperature. […] Plates were read spectrophotmetrically at a wavelength of 450 nm.
In general terms: ELISA stands for enzyme-linked immunosorbent assay.

The target of assay [4] is T2, recombinant purified human IL-12 p70. Nature of the assay: competition ELISA on coated human IL-12, competitor of 0.8 µg/ml biotinylated 8E1, average. Here is the method:
MaxiSorp ELISA plates (Nalge Nunc International) were coated overnight at 4° C. with 100 μl/well of 1.0 μg/ml human IL-12 in 0.2 M sodium carbonate-bicarbonate buffer, pH 9.4, washed with Wash Buffer (PBS containing 0.1% Tween 20), and blocked for 1 hr at room temperature with 300 μl/well of SuperBlock Blocking Buffer in TBS (Pierce Chemical Company). […] As isotype controls, 100 μl/well of 100 μg/ml mouse IgG 1/κ (MuFd79) or humanized IgG1/κ (HuFd79) monoclonal antibodies in ELISA buffer was used. As a no-competitor control, 100 μl/well of ELISA Buffer was used. After incubating the plates for 1 hr at room temperature, and washing with Wash Buffer, bound antibodies were detected using 100 μl/well of 1 μg/ml HRP-conjugated streptavidin (Pierce Chemical Company) in ELISA buffer. After incubating for 1 hr at room temperature, and washing with Wash Buffer, color development was performed by adding 100 μl/well of ABTS Peroxidase Substrate/Peroxidase Solution B (KPL, Inc.). After incubating for 5 min at room temperature, color development was stopped by adding 50 μl/well of 2% oxalic acid. Absorbance was read at 415 nm.
The affinity of 8E1.4, 8E1.5 and 8E1.6 to human IL-12 was analyzed by competition ELISA as described above.

B1: murine anti-human IL-12p40 monoclonal antibody 8E1 (antibody, V domains shown)
VH: EVKLVESGGGLVQPGGSRKLSCAASGFTFSDYGMVWVRQAPGKGLEWVASISSGSSNIYYADTVKGRFTISRDDPNNTLFLQMRSLRSEDTAMYYCARNPYWGQGTTLTVSS
VL: DIVMTQSQKFMSTSVGDRVSVTCKASQNVGTNVAWYQQKPGQSPKGLIYSASHRYSGVPDRFAGSGSGTDFTLTISNVQSEDLAEYFCQQYNSYPLTFGGGTKLELKR
notes: Murine mAb; also called biotinylated 8E1
Consider B1, for which, in assay [1], the “Average IC50 (nM) Cyno IL-12, PHA blast IFN-γ assay” value is 0.18 nM. In addition, in assay [2], the “Average IC50 (nM) Human IL-12, PHA blast IFN-γ assay” value was 0.19 nM. The binding result in assay [3] was “no binding (tested: 0.1 to 100 ng/ml mAb)”. Further, the IC50 (usually the concentration that gives 50% inhibition) in assay [4] came out at 2.56 µg/mL.
